This note sets out measurements from patent publication US20210198377A1 (XDCEXPLORER SHANGHAI, published 2021).

Test [1] concerns the target T1, biotinylated recombinant TPBG protein (Homo sapiens (Human), UniProt Q13641 32-355, Biotinylated; the number and positions of the biotin labels are not stated and the letters do not carry them.).
T1 sequence: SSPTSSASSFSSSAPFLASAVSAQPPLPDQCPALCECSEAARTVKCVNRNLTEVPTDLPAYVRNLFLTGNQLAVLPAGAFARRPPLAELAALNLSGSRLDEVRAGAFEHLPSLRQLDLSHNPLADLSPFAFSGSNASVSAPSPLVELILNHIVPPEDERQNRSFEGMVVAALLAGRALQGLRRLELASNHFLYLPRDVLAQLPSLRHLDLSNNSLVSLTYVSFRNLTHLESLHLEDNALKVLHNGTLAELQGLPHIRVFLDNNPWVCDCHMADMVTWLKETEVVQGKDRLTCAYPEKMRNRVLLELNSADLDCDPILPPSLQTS
Put plainly: competitive ELISA; row antibody 5 ug/mL; competitor: coated 37H9C5G2. Here is the method:
The purified antibodies to be tested were diluted to 1 μg/mL using PBS, and coated with high-adsorption of 96-well microplates at […]. After overnight coating at 4[…], 250 μL of blocking buffer (PBS containing 0.01% (v/v) Tween20 and 1% (w/w) BSA) was added to block coating at room temperature for 1 h, and 0.05 μg/mL of biotinylated recombinant TPBG protein was added to each well. Meanwhile, 5 μg/mL final concentration of competitive antibodies, i.e. the purified antibodies obtained from Embodiment 2 with the clone number of 12B12C7C3, 5G4H10G5, 37H9C5G2, 39A11G5F2, 52C9E9F6, 28D4E6A9, 36A10D8B12, 99E12C7H1, 103E2E9C2 and 106D5G3D10 were added and incubated at 25-37° C. for 1-2 h. The plates were washed three times with plate-washing buffer (PBS containing 0.01% (v/v) Tween20) and HRP (horseradish peroxidase)-labeled streptavidin (purchased from Sigma) was added. After incubating at 37° C. for 0.5 h, the plates were washed three times with plate-washing buffer (PBS containing 0.01% (v/v) Tween20), and 100 μL of TMB substrate was added to each well and the plates were further incubated at room temperature for 30 min prior to adding 100 μL of stop buffer (1.0N HCl) to each well. A₄₅₀ₙₘ values were read using an ELISA microplate reader (SpectraMax 384plus purchased from Molecular Device) and results were shown in FIG. 6. The higher the values of the competition rate, the closer the antigen surface of the two antibodies are.

The target in test [2] is T2, human TPBG-hFc (human, UniProt Q13641 32-355).
T2 construct: also called immunogen A; hFc tagged TPBG protein; not shown: The human IgG Fc fragment of the pCpC vector (Invitrogen V044-50) and any linker to it
T2 sequence: T1 sequence
Put plainly: ELISA, coated human TPBG-hFc 1.0 ug/mL; antibody 0.2 nM. Here is the method: The purified immunogen A (as for its method of preparation please refer to step 1 in Example 1) diluting with PBS to a final concentration of 1.0 μg/mL was aliquoted into a 96-well ELISA plate at 100 μL per well, and sealed with a parafilm and incubated at 4° C. overnight. The plate was washed twice with plate washing buffer (PBS containing 0.01% (v/v) Tween 20), and blocked with blocking buffer (PBS containing 0.01% (v/v) Tween 20 and 1% (w/w) BSA) at room temperature for 2 h. The blocking buffer was discarded, and 100 μL per well of the purified antibody obtained from Embodiment 2 was added. After incubating at 37° C. for 2 h, the plate was washed for three times with plate washing buffer (PBS containing 0.01% (v/v) Tween 20). HRP (horseradish peroxidase)-labeled secondary antibody (purchased from Sigma) was added and incubated at 37° C. for 2 h, and the plate was washed for three times using plate washing buffer (PBS containing 0.01% (v/v) Tween 20). 100 μL of TMB substrate was aliquoted into each well, incubated at room temperature for 30 min, and 100 μL of stop buffer (1.0N HCl) per well was subsequently added. A₄₅₀ₙₘ values were read using the ELISA plate reader (SpectraMax 384plus purchased from Molecular Device), and the results were shown in FIG. 6 and table 6. […] In Table 6 the IgG control herein is a mice IgG control, the data in the Table are OD₄₅₀ₘₙ values, and Blank means the OD₄₅₀ₘₙ value when there is only PBS buffer in the plate.
(In general: An ELISA detects its analyte on a solid surface through an enzyme-linked reagent.)

Residue numbers refer to the chain shown, from its start.

B1: 37H9C5G2 (antibody, V domains shown)
VH: QVQLQQSDAELVRPGASVKMSCKVSGYTFTDHTIHWMKQRPEQGLEWIGYIYPRDGSGTYNEKFKGKATLTADKSSSTAYMQLNSLTSEDSAVYFCARDGSSHYWYFDVWGTGTTVTVSS
VL: DIQMTQSPASLSASVGETVTITCRASEIIYNYLAWYQQKQGKSPQLLVYNAKTLAEGVPSRFSGSYSGTQFSLNINSLQSEDFGIYYCQHHHDTPLTFGAGTKLDLK
notes: Mouse hybridoma antibody purified from culture supernatant; also called TPBG antibody; lead antibody
On to B1, for which the competition rate in test [1] amounted to 96%. In test [2], this molecule returned an OD450nm of 1.55 OD450nm.

B2: 5G4H10G5 (antibody, V domains shown)
VH: EVQLVESGGDLVQPGGSLKLFCAASGFTFSTYGLSWVRQTPDKRLELVATITNNDGSAYYPDSVKGRFTISRDKAKNTLFLQMTSLKSEDTAMYYCARETGFGSSYLFDYWGQGTLVTVSA
VL: NIVMTQTPKFLLVSAGDRVTITCKASQSVSNDVAWYQQKPGQSPKLLIYFATNRYTGVPNRFTGSGYGTEFTFTISSVQAEDLAVYFCQQDYSSPTFGGGTKLEIK
notes: as for B1
For B2, the competition rate in test [1] was found to be 5%. For the same molecule, the OD450nm in test [2] is 1.76 OD450nm.

B3: 28D4E6A9 (antibody, V domains shown)
VH: DVQLVESGGGLVRPGGSLKLSCAASGFTFSNYVMSWARQSPEKRLEWVAEISTGGSHTYYSDTVTGRFTISRDNAKKALYLEMSSLRSEDTAIYYCIMFYYGSSYSMDYWGQGTSVTVSS
VL: DIQMTQSTSSLSASLGDRITISCRASQDIRNYLNWYQQKPDGTVKLLIYHTSRLHSGVPSRFSGSGSGTDYSLTISNLEQEDIATYFCQQGDTLPLTFGAGTRLELK
notes: as for B1
As to B3, the competition rate in test [1] is 0%. Besides, the OD450nm in test [2] is 1.97 OD450nm.

B4: 36A10D8B12 (antibody, V domains shown)
VH: DVQLQESGPGMVKPSQSLSLTCTVTGYSITSGYDWHWIRHFPGNKLEWMGYISYSGNTNYNPSLKSRISITHNTSKNHFFLRLNSVTTEDTATYYCARGYGNWDAMDYWGQGTSVTVSS
VL: DIVMTQSQKFMSTSVGDRVSVTCKASQIVDTNVAWYQQKPGQSPKALISSASYRYSGVPDRFTGSGSGTDFTLTISNVQSEDLAEYFCQQYNSYPLTFGAGTKLELT
notes: as for B1
For the molecule B4, in test [1], the competition rate is 96%. The same molecule showed an OD450nm in test [2] of 2.15 OD450nm.

B5: 39A11G5F2 (antibody, V domains shown)
VH: QVQLQQSGAELMKPGASMRLSCKATGYTFTGYWLEWIKRRPGHGLEWIGEILPGRGSTNYNEKFKGKATFTAETSSNTAYMQLTSLTTEDSAIYYCARGGRDFDNWGQGTTLTVSS
VL: DIQMTQSTSSLSASLGDRVTISCSASQGINNHLNWYQQKPDGTVKLLIYYTSSLHSGVPSRFSGSGSGTDYSLTISNLEPEDIAIYYCQQFSKLPYTFGGGTKVEMK
notes: as for B1
Consider B5, for which, in test [1], the competition rate was 0%. The molecule further gave an OD450nm in test [2] of 1.36 OD450nm.

B6: 52C9E9F6 (antibody, V domains shown)
VH: QVQLQQSGAELMKPGASVKLSCKATGYTFTGYWIEWIKQRPGHGLEWIGEILPGRGSTDYNEKFKGKATFTADTSSNTAYMQLSSLTTEDSAIYYCTRGRLDFTYWGQGTLVTVSA
VL: B5 VL with S7T, N30R, H32Y, I85T, F91Y, L94V, Y96W, V104L, M106I
notes: as for B1
In the case of B6, in test [1], the competition rate came to 4%. Besides, the OD450nm in test [2] was 1.39 OD450nm.

B7: 103E2E9C2 (antibody, V domains shown)
VH: EVQLQQSGPVLVKPGASVKMSCEASGYSFIDYYMSWVKQSRGRSLEWIGVFNPYSGEIIYNQKFKGKATLTVDKSSSTAYMELSSLTSEDSGVYSCARLRISYYAIDYWGQGTSVAVSS
VL: ENVLTQSPAIMSASPGEKVTMTCRATSSVSSGHFHWYQQKSGASPKVWIYSTSNLASGVPARFSGSGSGTSFSLTISSVEAEDVATYFCQQYSGYPLTFGGGTKLEIK
notes: as for B1
As to B7, the competition rate in test [1] worked out at 23%. The OD450nm in test [2] is 1.89 OD450nm.

B8: 12B12C7C3 (antibody, V domains shown)
VH: DVQLVESGGGLVQPGGSRKLSCAASGFTFSNFGMHWVRQAPEKGLEWVAYISSGSTSFYYADTVKGRFTISRDNPKNTLFLQMTSLRSEDTAMYYCSRTNSLLRGFFDAWGAGTTVTVSS
VL: DIVLTQSPASLAVSLGQRATISCRASQSVSSSSYTYLHWYQQKPGQPPKLLIKSASNLESGVPARFSGTGSGTDFTLNIHPVEEEDTATYYCQHSWEIPLTFGAGTKLELK
notes: as for B1
Take B8: the competition rate in test [1] amounted to 1%. This molecule also showed an OD450nm in test [2] of 1.67 OD450nm.

B9: 99E12C7H1 (antibody, V domains shown)
VH: QIQLVQSGPELKKPGETVKISCKPSGYTFTAYGLSWVKQAPGQGFQWMGWINTYSGVPTYTDDFKGRFAFSLETSAGTASLQITNLKNEDTATYFCARSSIPPFEYWGPGTTLTVSS
VL: SFVMTQSPKFLLVSVGDRVTITCKASQSVSNDVAWYQQKPGQPPRVLIYFASNRYTGVPDRFTGSGYGTDFTFTISTVQAEDLALYFCQQDYSSPWTFGGGTKLEIK
notes: as for B1
Consider B9, for which the competition rate in test [1] was 5%. This molecule also registered an OD450nm in test [2] of 2.62 OD450nm.

B10: 106D5G3D10 (antibody, V domains shown)
VH: EVQLVESGGGLVKPGGSLKLSCAASGFTFSDYGMHWVRQAPEKGLEWVGYISSGTYVVYYADTVKGRFTISRDNAKNTLFLQMTSLRSEDTAIYYCSTYGSNPFDYWGQGTTLTVSS
VL: QLVLTQSPAIMSASPGEKVTITCSATSSVSSMHWFQQKPVTSPKLWIYSTSNLASGVPTRFSGSGSGTSYSLTISRMEAEDAATYYCQQRSGYPPIFTFGSGTKLEIK
notes: as for B1
B10: the competition rate in test [1] amounted to 3%. This molecule also yielded an OD450nm in test [2] of 2.36 OD450nm.
